Measured values from US20180100026A1.
Where “and” joins values, the source holds several entries; their conditions need not be identical. Equal entries are not always repeated.

Columns and labels:
Test in all cases: cell-based or functional assay
[1] = target: anti-FITC CAR (FITC-E2 scFv, CD8 hinge and transmembrane region, 41BB and CD3 zeta) on human T cells
[2] = target: CD33 on MOLM14 cells (human) (UniProt P20138)
[3] = target: anti-FITC CAR with the 4M5.3 scFv (LV-EF1a-4M5.3-BBZ), on transduced human T cells
[4] = target: anti-FITC CAR with the 4-4-20 scFv (LV-EF1a-4-4-20-BBZ), on transduced human T cells
[5] = target: anti-FITC CAR with the 4D5Flu scFv (LV-EF1a-4D5Flu-BBZ), on transduced human T cells
[6] = target: anti-FITC CAR with the fully human FITC-E2 scFv (CD8 hinge, 41BB, CD3 zeta), on transduced human T cells
Chain of anti-FITC CAR with the fully human FITC-E2 scFv (CD8 hinge, 41BB, CD3 zeta), on transduced human T cells (chain, as listed by the source limits assumed): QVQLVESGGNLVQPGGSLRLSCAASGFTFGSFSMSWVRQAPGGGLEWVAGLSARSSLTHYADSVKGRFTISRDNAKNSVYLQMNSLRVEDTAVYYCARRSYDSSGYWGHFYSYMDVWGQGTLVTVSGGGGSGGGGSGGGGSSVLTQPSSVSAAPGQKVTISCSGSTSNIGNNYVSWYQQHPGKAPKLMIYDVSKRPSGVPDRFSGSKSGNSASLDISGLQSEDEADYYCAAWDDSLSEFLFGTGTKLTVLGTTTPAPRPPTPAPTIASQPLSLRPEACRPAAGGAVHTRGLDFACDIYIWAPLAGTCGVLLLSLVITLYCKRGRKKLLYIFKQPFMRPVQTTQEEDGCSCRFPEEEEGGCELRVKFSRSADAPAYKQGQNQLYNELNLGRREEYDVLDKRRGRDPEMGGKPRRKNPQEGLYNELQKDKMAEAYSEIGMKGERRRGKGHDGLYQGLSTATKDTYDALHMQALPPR

CD19 (human) = CD19 (human) (UniProt P15391)
Chain of CD19 (human) (P15391 20-556): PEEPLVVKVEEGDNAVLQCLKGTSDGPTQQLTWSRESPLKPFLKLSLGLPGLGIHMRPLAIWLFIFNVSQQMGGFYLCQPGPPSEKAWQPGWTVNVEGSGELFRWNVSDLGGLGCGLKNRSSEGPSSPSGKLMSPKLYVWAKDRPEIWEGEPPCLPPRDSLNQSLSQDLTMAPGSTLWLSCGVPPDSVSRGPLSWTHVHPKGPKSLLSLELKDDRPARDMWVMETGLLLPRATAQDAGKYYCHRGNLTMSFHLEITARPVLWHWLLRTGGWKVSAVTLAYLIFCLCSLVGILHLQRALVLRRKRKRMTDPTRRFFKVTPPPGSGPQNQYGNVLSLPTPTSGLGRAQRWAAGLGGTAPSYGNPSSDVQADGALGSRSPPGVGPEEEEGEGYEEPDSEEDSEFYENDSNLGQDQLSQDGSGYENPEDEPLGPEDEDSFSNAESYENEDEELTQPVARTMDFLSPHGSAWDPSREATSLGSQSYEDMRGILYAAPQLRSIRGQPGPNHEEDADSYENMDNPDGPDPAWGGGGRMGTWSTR

[7] = target: CD19 on NALM-6 (CD19+) cells (human) (UniProt P15391)
Chain of CD19 on NALM-6 (CD19+) cells (human) (P15391 20-556): as above

Chain of CD33 on MOLM14 cells (human) (P20138 18-364): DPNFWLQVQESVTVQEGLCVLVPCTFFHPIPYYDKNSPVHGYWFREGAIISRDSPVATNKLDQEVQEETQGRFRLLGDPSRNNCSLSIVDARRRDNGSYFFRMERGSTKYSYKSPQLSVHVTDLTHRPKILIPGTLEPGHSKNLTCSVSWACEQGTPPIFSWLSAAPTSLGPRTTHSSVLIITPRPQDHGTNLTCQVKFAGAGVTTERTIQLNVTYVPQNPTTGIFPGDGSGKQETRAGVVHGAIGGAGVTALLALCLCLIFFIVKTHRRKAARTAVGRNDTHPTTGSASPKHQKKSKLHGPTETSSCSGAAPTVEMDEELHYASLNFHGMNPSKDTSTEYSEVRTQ

With “anti-CD19 AB-FITC switch (anti-CD19 Fab, clone FMC63, FITC conjugated at light chain glycine 68 and heavy chain serine 74)” the % cytotoxicity, anti-FITC CAR-T + NALM-6 + 10 pM AB-FITC, with 0 nM free fluorescein [1] was 54.8%, the % cytotoxicity, anti-FITC CAR-T + NALM-6 + 10 pM AB-FITC, with 1 nM free fluorescein [1] was 57.1% and 58.1% and the % cytotoxicity, anti-FITC CAR-T + NALM-6 + 10 pM AB-FITC, with 10 nM free fluorescein [1] was 56.2% and 56%. For the same substance, the % cytotoxicity, anti-FITC CAR-T + NALM-6 + 10 pM AB-FITC, with 100 nM free fluorescein [1] was 55.7%, the % cytotoxicity, anti-FITC CAR-T + NALM-6 + 10 pM AB-FITC, with 1000 nM free fluorescein [1] was 50.4% and 50.9% and the % cytotoxicity, anti-FITC CAR-T + NALM-6 + 10 pM AB-FITC, with 10000 nM free fluorescein [1] was 27.4% and 31.6%.

Work on “anti-CD33 hM195 CD-FITC switch (light chain T113 and heavy chain A117) (Fab)” yielded an EC50 of cytotoxicity of anti-FITC CAR-T cells against MOLM14 cells [2] of 18.5 pM.

In the case of “anti-CD19 AB-FITC switch (anti-human CD19 Fab, clone FMC63, FITC conjugated at light chain glycine 68 and heavy chain serine 74)”, the % cytotoxicity of CD19+ target cells, FIG. 68A, switch at 0.01 pM [3] is reported as 21%, the % cytotoxicity of CD19+ target cells, FIG. 68A, switch at 0.1 pM [3] is reported as 46.4% and 33.9% and the % cytotoxicity of CD19+ target cells, FIG. 68A, switch at 1 pM [3] is reported as 58.2% and 56.6%. For the same substance, the % cytotoxicity of CD19+ target cells, FIG. 68A, switch at 10 pM [3] was 58.9% and 48.9%, the % cytotoxicity of CD19+ target cells, FIG. 68A, switch at 100 pM [3] was 70.5% and 71.3% and the % cytotoxicity of CD19+ target cells, FIG. 68A, switch at 1000 pM [3] was 83.2%. The % cytotoxicity of CD19+ target cells, FIG. 68A, switch at 10000 pM [3] was 85.7% and 72%, the % cytotoxicity of CD19+ target cells, FIG. 68B, switch at 0.0001 pM [3] was 2% and the % cytotoxicity of CD19+ target cells, FIG. 68B, switch at 0.001 pM [3] was 9.17%. For the same substance, the % cytotoxicity of CD19+ target cells, FIG. 68B, switch at 0.01 pM [3] was 1.15%, the % cytotoxicity of CD19+ target cells, FIG. 68B, switch at 0.1 pM [3] was 25.4% and the % cytotoxicity of CD19+ target cells, FIG. 68B, switch at 1 pM [3] was 28.5% and 27.5%. For the same substance, the % cytotoxicity of CD19+ target cells, FIG. 68B, switch at 10 pM [3] was 58.4%, the % cytotoxicity of CD19+ target cells, FIG. 68B, switch at 100 pM [3] was 60.8% and 65.8% and the % cytotoxicity of CD19+ target cells, FIG. 68B, switch at 1000 pM [3] was 73.4% and 71.5%. For the same substance, the % cytotoxicity of CD19+ target cells, FIG. 68B, switch at 10000 pM [3] was 64.2% and 55.2%, the % cytotoxicity of CD19+ target cells, FIG. 68A, switch at 0.01 pM [4] was 0.526% and the % cytotoxicity of CD19+ target cells, FIG. 68A, switch at 0.1 pM [4] was 32.8% and 33.3%. For the same substance, the % cytotoxicity of CD19+ target cells, FIG. 68A, switch at 1 pM [4] was 52.3%, the % cytotoxicity of CD19+ target cells, FIG. 68A, switch at 10 pM [4] was 64.9% and 66.1% and the % cytotoxicity of CD19+ target cells, FIG. 68A, switch at 100 pM [4] was 71.7% and 65.6%. For the same substance, the % cytotoxicity of CD19+ target cells, FIG. 68A, switch at 1000 pM [4] was 67.8%, the % cytotoxicity of CD19+ target cells, FIG. 68A, switch at 10000 pM [4] was 74.1% and 71.5% and the % cytotoxicity of CD19+ target cells, FIG. 68A, switch at 1.00E-03 pM [4] was 4.97%. For the same substance, the % cytotoxicity of CD19+ target cells, FIG. 68B, switch at 0.1 pM [4] was 14.8% and 10.9%, the % cytotoxicity of CD19+ target cells, FIG. 68B, switch at 1 pM [4] was 36.7% and 37.8% and the % cytotoxicity of CD19+ target cells, FIG. 68B, switch at 10 pM [4] was 59% and 46.7%. It also gave a % cytotoxicity of CD19+ target cells, FIG. 68B, switch at 100 pM [4] of 57.9%, a % cytotoxicity of CD19+ target cells, FIG. 68B, switch at 1000 pM [4] of 55.8% and a % cytotoxicity of CD19+ target cells, FIG. 68B, switch at 10000 pM [4] of 68.6%. The % cytotoxicity of CD19+ target cells, FIG. 68A, switch at 0.01 pM [5] was 24% and 29.5%, the % cytotoxicity of CD19+ target cells, FIG. 68A, switch at 0.1 pM [5] was 39.3% and 45.7% and the % cytotoxicity of CD19+ target cells, FIG. 68A, switch at 1 pM [5] was 60.1%. For the same substance, the % cytotoxicity of CD19+ target cells, FIG. 68A, switch at 10 pM [5] was 56.1% and 67.7%, the % cytotoxicity of CD19+ target cells, FIG. 68A, switch at 100 pM [5] was 74.3% and 69.3% and the % cytotoxicity of CD19+ target cells, FIG. 68A, switch at 1000 pM [5] was 84.8%. For the same substance, the % cytotoxicity of CD19+ target cells, FIG. 68A, switch at 10000 pM [5] was 73.6% and 76.9%, the % cytotoxicity of CD19+ target cells, FIG. 68A, switch at 1.00E-04 pM [5] was 6.29% and the % cytotoxicity of CD19+ target cells, FIG. 68B, switch at 0.01 pM [5] was 1.9% and 8.37%. The % cytotoxicity of CD19+ target cells, FIG. 68B, switch at 0.1 pM [5] was 10.9% and 10.4%, the % cytotoxicity of CD19+ target cells, FIG. 68B, switch at 1 pM [5] was 39.4% and 32.9% and the % cytotoxicity of CD19+ target cells, FIG. 68B, switch at 10 pM [5] was 63.2% and 68.1%. The % cytotoxicity of CD19+ target cells, FIG. 68B, switch at 100 pM [5] was 69.4% and 61.2%, the % cytotoxicity of CD19+ target cells, FIG. 68B, switch at 1000 pM [5] was 72.5% and 63.6% and the % cytotoxicity of CD19+ target cells, FIG. 68B, switch at 10000 pM [5] was 69.1% and 66.8%. The % cytotoxicity of CD19+ target cells, FIG. 68A, switch at 0.01 pM [6] was 26.7% and 38.4%, the % cytotoxicity of CD19+ target cells, FIG. 68A, switch at 0.1 pM [6] was 49% and 60.5% and the % cytotoxicity of CD19+ target cells, FIG. 68A, switch at 1 pM [6] was 51% and 75.3%. For the same substance, the % cytotoxicity of CD19+ target cells, FIG. 68A, switch at 10 pM [6] was 62.1% and 75.5%, the % cytotoxicity of CD19+ target cells, FIG. 68A, switch at 100 pM [6] was 69.6% and 80.5% and the % cytotoxicity of CD19+ target cells, FIG. 68A, switch at 1000 pM [6] was 80.6% and 99.8%. The % cytotoxicity of CD19+ target cells, FIG. 68A, switch at 10000 pM [6] was 93.1% and 100%, the % cytotoxicity of CD19+ target cells, FIG. 68A, switch at 1.00E-03 pM [6] was 10.3% and 25.2% and the % cytotoxicity of CD19+ target cells, FIG. 68B, switch at 0.0001 pM [6] was 3.26% and 17%. It also gave a % cytotoxicity of CD19+ target cells, FIG. 68B, switch at 0.001 pM [6] of 19.6%, a % cytotoxicity of CD19+ target cells, FIG. 68B, switch at 0.01 pM [6] of 17.4% and a % cytotoxicity of CD19+ target cells, FIG. 68B, switch at 0.1 pM [6] of 15%. For the same substance, the % cytotoxicity of CD19+ target cells, FIG. 68B, switch at 1 pM [6] was 47.4% and 43.2%, the % cytotoxicity of CD19+ target cells, FIG. 68B, switch at 10 pM [6] was 64.6% and 70.1% and the % cytotoxicity of CD19+ target cells, FIG. 68B, switch at 100 pM [6] was 60.7% and 67.6%. For the same substance, the % cytotoxicity of CD19+ target cells, FIG. 68B, switch at 1000 pM [6] was 70.4% and the % cytotoxicity of CD19+ target cells, FIG. 68B, switch at 10000 pM [6] was 72.7% and 75.4%.

In the case of “CART-19: second generation CD19 specific CAR with anti-CD19 scFv (clone FMC63), 41BB and CD3zeta, on human T cells”, the Human IFN-g, CART19 + Nalm-6 (CD19 (human)) is reported as 915 and 924 and 951, the target cell lysis, CART19 + Nalm-6, E:T 0.04:1 (CD19 (human)) is reported as 12.6 and 13 and the target cell lysis, CART19 + Nalm-6, E:T 0.2:1 (CD19 (human)) is reported as 21.7 and 24.5. For the same substance, the target cell lysis, CART19 + Nalm-6, E:T printed as 1:01 (CD19 (human)) was 52 and 48, the target cell lysis, CART19 + Nalm-6, E:T printed as 5:01 (CD19 (human)) was 75.2 and 73.3 and the target cell lysis, CART19 + Nalm-6, E:T printed as 15:01 (CD19 (human)) was 87.3 and 88.3.

For isotype control (Millipore) (antibody), the % cytotoxicity, anti-FITC CAR-T + NALM-6 + 10 pM AB-FITC, with 0 pM isotype (IgG) [7] was 54.6% and 51.4%, the % cytotoxicity, anti-FITC CAR-T + NALM-6 + 10 pM AB-FITC, with 1 pM isotype (IgG) [7] was 48.3% and 48.2% and the % cytotoxicity, anti-FITC CAR-T + NALM-6 + 10 pM AB-FITC, with 10 pM isotype (IgG) [7] was 49.6% and 49.9%. For the same substance, the % cytotoxicity, anti-FITC CAR-T + NALM-6 + 10 pM AB-FITC, with 100 pM isotype (IgG) [7] was 50% and 44.7%, the % cytotoxicity, anti-FITC CAR-T + NALM-6 + 10 pM AB-FITC, with 1000 pM isotype (IgG) [7] was 45.7% and 41.6% and the % cytotoxicity, anti-FITC CAR-T + NALM-6 + 10 pM AB-FITC, with 10000 pM isotype (IgG) [7] was 44.4% and 43%.

With “non-conjugated anti-CD19 Fab (clone FMC63)” the % cytotoxicity at 0.0001 pM; anti-FITC CAR-T; FIG. 72A [1] was 1.78%, the % cytotoxicity at 0.0001 pM; anti-FITC CAR-T; FIG. 72C [1] was 1.12% and the % cytotoxicity at 0.001 pM; anti-FITC CAR-T; FIG. 72A [1] was 0.731%. The % cytotoxicity at 0.001 pM; anti-FITC CAR-T; FIG. 72B [1] was 2.73%, the % cytotoxicity at 0.001 pM; anti-FITC CAR-T; FIG. 72C [1] was 5.24% and the % cytotoxicity at 0.01 pM; anti-FITC CAR-T; FIG. 72A [1] was 8.15%. The % cytotoxicity at 0.01 pM; anti-FITC CAR-T; FIG. 72B [1] was 2.04%, the % cytotoxicity at 0.1 pM; anti-FITC CAR-T; FIG. 72A [1] was 1.96% and the % cytotoxicity at 0.1 pM; anti-FITC CAR-T; FIG. 72C [1] was 2.66%. The % cytotoxicity at 1 pM; anti-FITC CAR-T; FIG. 72A [1] was 4.93%, the % cytotoxicity at 1 pM; anti-FITC CAR-T; FIG. 72B [1] was 3.84% and the % cytotoxicity at 1 pM; anti-FITC CAR-T; FIG. 72C [1] was 1.99%. The % cytotoxicity at 10 pM; anti-FITC CAR-T; FIG. 72A [1] was 3.73% and 2.56%, the % cytotoxicity at 10 pM; anti-FITC CAR-T; FIG. 72B [1] was 4.56% and 2.09% and the % cytotoxicity at 10 pM; anti-FITC CAR-T; FIG. 72C [1] was 1.85% and 9.94%. The % cytotoxicity at 100 pM; anti-FITC CAR-T; FIG. 72A [1] was 4.61% and 8.92%, the % cytotoxicity at 100 pM; anti-FITC CAR-T; FIG. 72B [1] was 3.24% and 1.4% and the % cytotoxicity at 100 pM; anti-FITC CAR-T; FIG. 72C [1] was 4.45% and 12.1%. For the same substance, the % cytotoxicity at 1000 pM; anti-FITC CAR-T; FIG. 72B [1] was 10.5% and 2.6%, the % cytotoxicity at 1000 pM; anti-FITC CAR-T; FIG. 72C [1] was 2.18% and 5.61% and the % cytotoxicity at 10000 pM; anti-FITC CAR-T; FIG. 72A [1] was 11.7% and 1.87%. For the same substance, the % cytotoxicity at 10000 pM; anti-FITC CAR-T; FIG. 72B [1] was 2.58% and the % cytotoxicity at 10000 pM; anti-FITC CAR-T; FIG. 72C [1] was 1.37% and 1.83%.
